Legend:
[1] = biological target: T1, LutR (LutR-FL, full-length); assay: microscale thermophoresis (label-free); format: binding, Bacillus subtilis; settings: 8 μM LutR; 20 mM Tris-HCl pH 7.5, 250 mM NaCl, 0.02% β-mercaptoethanol; free protein without DNA; effector
T1 construct: full-length residues 2-240, N-terminal His6 and TEV site (pMCSG7-derived vector), His6-tagged protein purified and apparently tag kept; expressed in E. coli BL21(DE3)

[2] = biological target: DNA-binding domain of LutR (LutR–DBD, residues 2–78) (Bacillus subtilis); assay: SEC; analytical SEC, Superdex 200 10/300 GL, room temperature, PBS pH 7.4; protein 3 mg/ml (33.2 uM as printed); alone and with DNA (protein:DNA 2:1)
[3] = biological target: Full-length LutR (LutR-FL, amino-acid residues 2–240) (Bacillus subtilis); assay: SEC; analytical SEC, Superdex 200 10/300 GL, room temperature, 20 mM Tris-HCl pH 7.5, 250 mM NaCl, 0.02% beta-mercaptoethanol; protein 2 mg/ml (66.7 uM), DNA 50 uM, protein:DNA 2:1.5; with and without 50 mM L-lactate; dimer told for the DNA-bound protein

Compound: C[C@H](O)C(=O)O [L-lactate]
- Kd [1]: 2300 ± 5 µM

Compound: DNA-binding domain of LutR (LutR–DBD, residues 2–78) (domain or fragment)
- stoichiometry N [2]: 2

Compound: Full-length LutR (LutR-FL, amino-acid residues 2–240) (natural protein)
- stoichiometry N [3]: 2

— PMC11734750, “Using environment-sensitive tetramethylated thiophene-BODIPY fluorophores in DNA probes for studying effector-induced conformational changes of protein–DNA complexes” (RSC Chemical Biology, 2025)
